B1: TNF receptor-associated factor 3 (Homo sapiens), Q13114 (parent)
chain: MESSKKMDSPGALQTNPPLKLHTDRSAGTPVFVPEQGGYKEKFVKTVEDKYKCEKCHLVLCSPKQTECGHRFCESCMAALLSSSSPKCTACQESIVKDKVFKDNCCKREILALQIYCRNESRGCAEQLMLGHLLVHLKNDCHFEELPCVRPDCKEKVLRKDLRDHVEKACKYREATCSHCKSQVPMIALQKHEDTDCPCVVVSCPHKCSVQTLLRSELSAHLSECVNAPSTCSFKRYGCVFQGTNQQIKAHEASSAVQHVNLLKEWSNSLEKKVSLLQNESVEKNKSIQSLHNQICSFEIEIERQKEMLRNNESKILHLQRVIDSQAEKLKELDKEIRPFRQNWEEADSMKSSVESLQNRVTELESVDKSAGQVARNTGLLESQLSRHDQMLSVHDIRLADMDLRFQVLETASYNGVLIWKIRDYKRRKQEAVMGKTLSLYSQPFYTGYFGYKMCARVYLNGDGMGKGTHLSLFFVIMRGEYDALLPWPFKQKVTLMLMDQGSSRRHLGDAFKPDPNSSSFKKPTGEMNIASGCPVFVAQTVLENGTYIKDDTIFIKVIVDTSDLPDP
partner: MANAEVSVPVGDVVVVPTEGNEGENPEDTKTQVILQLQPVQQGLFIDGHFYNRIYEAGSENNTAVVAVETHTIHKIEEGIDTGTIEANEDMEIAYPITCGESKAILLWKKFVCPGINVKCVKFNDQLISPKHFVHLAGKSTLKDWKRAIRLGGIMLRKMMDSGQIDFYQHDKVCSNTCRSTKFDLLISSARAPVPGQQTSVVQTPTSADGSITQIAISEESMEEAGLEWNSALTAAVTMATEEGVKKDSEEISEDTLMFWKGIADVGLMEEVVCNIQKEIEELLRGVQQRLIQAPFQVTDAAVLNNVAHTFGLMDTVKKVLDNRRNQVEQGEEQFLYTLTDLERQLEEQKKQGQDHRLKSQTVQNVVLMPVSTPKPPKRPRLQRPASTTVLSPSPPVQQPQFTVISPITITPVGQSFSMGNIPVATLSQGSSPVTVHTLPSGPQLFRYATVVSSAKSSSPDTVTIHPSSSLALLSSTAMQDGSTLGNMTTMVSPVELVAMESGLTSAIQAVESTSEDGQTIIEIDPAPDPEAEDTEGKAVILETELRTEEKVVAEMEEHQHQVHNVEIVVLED

Variants of: B1
Details: with gmeb1_human GMEB1, Q9Y692

| effect of a mutation on the interaction | Variant |
| --- | --- |
| with no effect | C53A;C56A |

From IntAct's records for PubMed 32514408
